In patent publication US20220356229A1 one finds median fluorescence intensity, fold over isotype control (fold over isotype) data, which are given here for one molecule.

For this test, the target named is SARS-CoV-2 full length Spike protein, wild type, expressed on the surface of transiently transfected CHO cells (SARS-CoV-2), P0DTC2. Particulars: remark: other sources report otherwise.

B1: antibody 262 (antibody, V domains shown)
VH: QVQLVESGGGVVQPGRSLRLSCAASGFTFSSYAMHWVRQAPGKGLEWVAVISYDGSNKYYADSVKGRFTISRDNSKNTLYLQMNSLRAEDTAVYYCARDGGELLWFGELDYYGMDVWGQGTTVTVSS
VL: SYELTQPSSVSVSPGQTARITCSGDVLAKKYARWFQQKPGQAPVLVIYKDSERPSGIPERFSGSSSGTTVTLTISGAQVEDEADYYCYSAADNNRGVFGGGTKLTVL
Consider B1, for which the median fluorescence intensity, fold over isotype control (fold over isotype) worked out at 0.89.
